According to paper PMC6321010, “Interaction of the GTPase Elongation Factor Like-1 with the Shwachman-Diamond Syndrome Protein and Its Missense Mutations” (International Journal of Molecular Sciences, 2018):

Columns and labels:
Experiment in all cases: fluorescence polarisation; fluorescence anisotropy; 2 µL additions of 40-90 µM human EFL1 titrated into 300 µL of 0.1 µM Lumio Green-labelled human SBDS-FlAsH construct; 25 °C; 50 mM Tris-HCl pH 8, 300 mM NaCl, 5 mM β-mercaptoethanol; fitted to a single-site or a two different binding sites model
Conditions in all cases: both partners purified
[1] = target: T1, human SBDS K67E with C-terminal FlAsH tag, labelled with Lumio Green (human, UniProt Q9Y3A5 1-250, K67E, Lumio Green dye (4',5'-bis(1,3,2-dithioarsolan-2-yl) fluorescein) on the C-terminal FlAsH tag)
T1 construct: human SBDS, SDS disease surface missense variant K67E (domain 1), in the three-domain protein; Missense variant found in patients; source: E. coli C41 (pRSET plasmid), purified by conventional chromatographic techniques; not shown: FlAsH tag (Cys-Cys-Pro-Gly-Cys-Cys), C-terminal, kept
T1 sequence (looked up): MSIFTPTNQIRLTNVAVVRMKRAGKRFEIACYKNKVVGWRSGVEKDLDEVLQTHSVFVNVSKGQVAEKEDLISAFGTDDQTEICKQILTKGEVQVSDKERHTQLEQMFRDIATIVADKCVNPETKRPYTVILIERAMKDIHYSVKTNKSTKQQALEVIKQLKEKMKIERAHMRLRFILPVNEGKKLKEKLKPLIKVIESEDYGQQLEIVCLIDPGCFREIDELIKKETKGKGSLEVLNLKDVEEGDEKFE

[2] = target: T2, human SBDS wild type with C-terminal FlAsH tag, labelled with Lumio Green (human, UniProt Q9Y3A5 1-250, Lumio Green dye (4',5'-bis(1,3,2-dithioarsolan-2-yl) fluorescein) on the C-terminal FlAsH tag)
T2 construct: human SBDS, wild type, called the full-length protein; also called SBDS-FlAsH; Shwachman-Bodian-Diamond Syndrome protein; source: E. coli C41 (pRSET plasmid), purified by conventional chromatographic techniques; not shown: FlAsH tag (Cys-Cys-Pro-Gly-Cys-Cys), C-terminal, kept
T2 sequence (looked up): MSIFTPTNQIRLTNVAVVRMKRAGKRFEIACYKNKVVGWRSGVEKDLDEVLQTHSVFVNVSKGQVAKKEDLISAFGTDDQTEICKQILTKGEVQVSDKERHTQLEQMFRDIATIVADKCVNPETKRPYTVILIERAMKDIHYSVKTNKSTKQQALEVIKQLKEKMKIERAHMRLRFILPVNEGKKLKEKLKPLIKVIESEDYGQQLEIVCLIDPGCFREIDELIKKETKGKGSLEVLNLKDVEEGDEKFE

[3] = target: T3, human SBDS I167T with C-terminal FlAsH tag, labelled with Lumio Green (human, UniProt Q9Y3A5 1-250, I167T, Lumio Green dye (4',5'-bis(1,3,2-dithioarsolan-2-yl) fluorescein) on the C-terminal FlAsH tag)
T3 construct: human SBDS, SDS disease surface missense variant I167T (domain 2), in the three-domain protein; Missense variant found in patients; source: E. coli C41 (pRSET plasmid), purified by conventional chromatographic techniques; not shown: FlAsH tag (Cys-Cys-Pro-Gly-Cys-Cys), C-terminal, kept
T3 sequence (looked up): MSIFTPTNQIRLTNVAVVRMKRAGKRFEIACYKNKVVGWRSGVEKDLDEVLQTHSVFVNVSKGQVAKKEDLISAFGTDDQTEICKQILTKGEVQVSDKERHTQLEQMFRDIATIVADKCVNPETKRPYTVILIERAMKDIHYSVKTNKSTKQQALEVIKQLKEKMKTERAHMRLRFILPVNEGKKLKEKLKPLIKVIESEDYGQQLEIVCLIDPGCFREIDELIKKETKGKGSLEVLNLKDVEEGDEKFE

[4] = target: T4, human SBDS R126T with C-terminal FlAsH tag, labelled with Lumio Green (human, UniProt Q9Y3A5 1-250, R126T, Lumio Green dye (4',5'-bis(1,3,2-dithioarsolan-2-yl) fluorescein) on the C-terminal FlAsH tag)
T4 construct: human SBDS, SDS disease surface missense variant R126T (domain 2), in the three-domain protein; Missense variant found in patients; source: E. coli C41 (pRSET plasmid), purified by conventional chromatographic techniques; not shown: FlAsH tag (Cys-Cys-Pro-Gly-Cys-Cys), C-terminal, kept
T4 sequence (looked up): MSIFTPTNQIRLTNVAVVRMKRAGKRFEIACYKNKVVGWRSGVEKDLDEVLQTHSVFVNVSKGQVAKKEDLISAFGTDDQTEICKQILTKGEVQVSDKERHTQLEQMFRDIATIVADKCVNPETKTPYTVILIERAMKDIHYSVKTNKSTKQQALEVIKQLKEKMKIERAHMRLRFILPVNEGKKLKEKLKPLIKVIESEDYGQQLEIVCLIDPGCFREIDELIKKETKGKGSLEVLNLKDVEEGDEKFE

Kd1 (first binding site, two different binding sites model) [1]: 7.2 ± 2 µM
Kd2 (second binding site, two different binding sites model) [1]: 3 ± 1 µM
Kd1 (first binding site, two different binding sites model) [2]: 5.4 ± 1 µM
Kd2 (second binding site, two different binding sites model) [2]: 0.4 ± 0.04 µM
Kd1 (first binding site, two different binding sites model) [3]: 10 ± 3 µM
Kd2 (second binding site, two different binding sites model) [3]: 1.4 ± 0.2 µM
Kd1 (first binding site, two different binding sites model) [4]: 9.3 ± 1.7 µM
Kd2 (second binding site, two different binding sites model) [4]: 2.5 ± 0.2 µM
B1: human Elongation Factor Like-1 (EFL1) (enzyme)
chain: MVLNSLDKMIQLQKNTANIRNICVLAHVDHGKTTLADCLISSNGIISSRLAGKLRYMDSREDEQIRGITMKSSAISLHYATGNEEYLINLIDSPGHVDFSSEVSTAVRICDGCIIVVDAVEGVCPQTQAVLRQAWLENIRPVLVINKIDRLIVELKFTPQEAYSHLKNILEQINALTGTLFTSKVLEERAERETESQVNPNSEQGEQVYDWSTGLEDTDDSHLYFSPEQGNVVFTSAIDGWGFGIEHFARIYSQKIGIKKEVLMKTLWGDYYINMKAKKIMKGDQAKGKKPLFVQLILENIWSLYDAVLKKDKDKIDKIVTSLGLKIGAREARHSDPKVQINAICSQWLPISHAVLAMVCQKLPSPLDITAERVERLMCTGSQTFDSFPPETQALKAAFMKCGSEDTAPVIIFVSKMFAVDAKALPQNKPRPLTQEEIAQRRERARQRHAEKLAAAQGQAPLEPTQDGSAIETCPKGEEPRGDEQQVESMTPKPVLQEENNQESFIAFARVFSGVARRGKKIFVLGPKYSPLEFLRRVPLGFSAPPDGLPQVPHMAYCALENLYLLMGRELEYLEEVPPGNVLGIGGLQDFVLKSATLCSLPSCPPFIPLNFEATPIVRVAVEPKHPSEMPQLVKGMKLLNQADPCVQILIQETGEHVLVTAGEVHLQRCLDDLKERFAKIHISVSEPIIPFRETITKPPKVDMVNEEIGKQQKVAVIHQMKEDQSKIPEGIQVDSDGLITITTPNKLATLSVRAMPLPEEVTQILEENSDLIRSMEQLTSSLNEGENTHMIHQKTQEKIWEFKGKLEQHLTGRRWRNIVDQIWSFGPRKCGPNILVNKSEDFQNSVWTGPADKASKEASRYRDLGNSIVSGFQLATLSGPMCEEPLMGVCFVLEKWDLSKFEEQGASDLAKEGQEENETCSGGNENQELQDGCSEAFEKRTSQKGESPLTDCYGPFSGQLIATMKEACRYALQVKPQRLMAAMYTCDIMATGDVLGRVYAVLSKREGRVLQEEMKEGTDMFIIKAVLPVAESFGFADEIRKRTSGLASPQLVFSHWEIIPSDPFWVPTTEEEYLHFGEKADSENQARKYMNAVRKRKGLYVEEKIVEHAEKQRTLSKNK
notes: human EFL1, GTPase, said to comprise 1120 residues; the expressed protein is fused to a TEV recognition site and a hexahistidine tag at the C-terminus; also called human EFL1; GTPase Elongation Factor Like-1; source: S. cerevisiae BCY123 (pRS426 backbone, GAL1/10 promoter), purified
